According to publication PMC2935088:

Target: T1, DesT (selenomethionine) (Pseudomonas aeruginosa, UniProt Q9HUS3 1-209)
T1 sequence: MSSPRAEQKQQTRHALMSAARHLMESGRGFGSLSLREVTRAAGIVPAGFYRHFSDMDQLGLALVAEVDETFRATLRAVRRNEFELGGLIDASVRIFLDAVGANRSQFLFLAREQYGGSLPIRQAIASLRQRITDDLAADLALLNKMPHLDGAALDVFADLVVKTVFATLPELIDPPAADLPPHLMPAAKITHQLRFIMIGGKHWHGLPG
Assay: X-ray crystallography

B1: desCB promoter 30mer crystallization duplex (dsDNA)
DNA 1: TTACATCAGTGAACGCTTGTTGACTCGATTG
DNA 2: CAATCGAGTCAACAAGCGTTCACTGATGTA
B1: binds.
